From publication PMC11764276 come the findings set out here.

This assay addresses 2196 HC + alphamod1 LC (human). The assay is described as follows: SPR; Biacore 8k; antibody captured on a Series S Protein A chip to ~200 RU or greater; 4X serially diluted RBD starting at 1,000 nM flowed at 50 uL/min, 120 s contact, 600 s dissociation; HBS-EP+ buffer; 1:1 Langmuir fitting, steady state analysis, or two-state reaction fitting.

Chain of 2196 HC + alphamod1 LC (human) (heavy, as listed by the source, chain 1 of 2): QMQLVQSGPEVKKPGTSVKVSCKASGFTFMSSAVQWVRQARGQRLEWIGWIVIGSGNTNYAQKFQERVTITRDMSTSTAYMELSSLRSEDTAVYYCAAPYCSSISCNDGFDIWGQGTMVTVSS
Chain of 2196 HC + alphamod1 LC (human) (light, as listed by the source, chain 2 of 2): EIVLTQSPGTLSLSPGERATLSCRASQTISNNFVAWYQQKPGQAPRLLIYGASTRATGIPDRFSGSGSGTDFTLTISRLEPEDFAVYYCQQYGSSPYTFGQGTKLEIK

Consider “RBD (residues 334–527 of the SARS-CoV-2 spike glycoprotein) (from UniProt P0DTC2 334-527) (domain or fragment)”, for which the Kd stood at 99.4 nM.

As a reminder, the Kd is the equilibrium constant for the complex coming apart.
